From the nanobody polyreactivity screen of Harvey et al. (2022)

Experiment: yeast display, Sf9 membrane polyspecificity reagent, FACS + sequencing; frameworks hold sequencing errors
Outline: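 Polyreactivity labels are assigned by the sorting gate from which each nanobody was recovered. The gates were low and high (top ~1%), set on anti-HA fluorescence for expression and streptavidin fluorescence for reagent binding. Before sorting, galactose-induced (36–48 hours) yeast display cells were stained for 1 hour at 4 °C with 10% biotinylated, detergent-solubilized Sf9 membrane reagent.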

Row | Sequence | polyreactivity (PSR sort gate)
1 | QVQLVESGGGLVQAGGSLRLSCAASGRTFVNYTMGWYRQAPGKERELVAAVSWTGGRTYYADSVKGRFTISRDNAKNTVYLQMNSLKPEDTAVYYCATQPEKSGRPAIDPELYDYWGQGTQVTVSS | low polyreactivity
2 | QVQLVESGGGLVQAGGSLRLSCAASGLIFGTNAMGWYRQAPGKERELVAYITSGGSTYADSVKGRFTISRDNAKNTVYLQMNSLKPEDTAVYYCAAYVFWAFYEYDYWGQGTQVTVSS | low polyreactivity
3 | QVQLVESGGGLVQAGGSLRLSCAASGRIFRYYAMGWYRQAPGKEREFVAAINSSGVNTYYADSVKGRFTISRDNAKNTVYLQMNSLKPEDTAVYYCAFLGMDYWGQGTQVTVSS | high polyreactivity
4 | QVQLVESGGGLVQAGGSLRLTCAASGRIFPYYAMGWYRQAPGKEREFVAAITSSGSRTYYADSVKGRFTISRDNAKNNVYLQMNSLKPEDTAVYYCAVAYRLLYYYWGQGTQVTVSS | high polyreactivity
5 | KCQLVDSGGGLVQAGGSLRLSCAASGSIFYVKAMGWYRQAPGKEREFVADITYTGGSTYYADSVNGRFTISRDNAKNTVYLQMNSLKPEDTAVYYCAADLYTTYVAIYDYWGQGTQVTVSS | low polyreactivity
6 | QVQLVESGGGLVQAGGSLRLSCAASGFTFPYYAMGWSRQAPGKERELVAAISFSGGSPYYADSVKGRFTISRDNAKNTVYLQMNSLKPEDTAVYYCAATTKYNGRRSYFKFDYWGQGTQVTVST | high polyreactivity
7 | QVQLVESGGGLVQAGGSLRLSCAASGSTFRQYAMGWYRQAPGKERELVAAISSGGRTNYADSVKGRFTISRDNAKNTVYLQMNSLKPEDTAVYYCAADIRRRVPVRGYYYWGQGTQVTVSS | high polyreactivity
8 | QVQLVESGGGLVQAGGSLRLSCAASGRIFGVYTMGWYRQAPGKERELVAVISRRGGRTYYADSVKGRFTISRDNAKNTVYLQMNSLKPEDTAVYYCARDSTYSSYTSNDYWGQGTQVTVSS | high polyreactivity
9 | QVQLVESGGGLVQAGGSLRLSCAASGAIFSWNAMGWYRQAPGKERELVATITWNGGRTYYADSVKGRFTISRDNAKKTVYLQMNSLKPEATAVYYCAARNTQPASYGYGYWGQGTQVTVSS | high polyreactivity
10 | QVQLVESGGGLVQAGGSLRLSCAASGYTFAWYAMGWYRQAPGKERELVAAINNGGSTSYADSVKGRFTISRDNAKNTVYLQMNSLKPEDTAVYYCNADHYGGPHWMDYWGQGTQVTVSS | low polyreactivity
11 | QVQLVESGGGLVQAGGSLRLSCAASGFTFHNYAMGWYRQAPGKERELVAVIRWRGGSTYYADSVKGRFTISRDNAKNSVYLQMNSLKPEDTAFYYCAKRARGSYYWGYNYWGQGTQVTVSS | high polyreactivity
12 | QVQLVESGGGLVQAGGSLRLSCAASGSTFGGYAMGWYRQAPGKERELVAAISRRGVSTYYADSVKGRFTISRDNAKNTVYLQMNSLKPEDTAVYYFNKKYFYSRHGSWGQGSQVTVSS | high polyreactivity
13 | QVQLVESGGGLVQAGGSLRLSCAASGRTFYYYAMVWYRQAPGKERELVAAINSGGSTNYADSVKGRFTISRDNAKNTVYLQMNSLKPEDTAVYYCAKRAYTTVYGPVNYGFNYWGQGTQVTVSS | low polyreactivity
14 | QVQLVESGGGLVQAGGSLRLSCAASGRIFWPYAMGWYRQAPGKERELVAVITSGTTTYYADSVKGRFTISRDNAKNTVYLKMNSLKPEDTAVYYCNIFSRARRYFEYDYWGQGTQVTVSS | low polyreactivity
15 | QVQLVESGGGLVQAGGSLRLICAASGYIFRPNAMGWYRQAPGKERELVASISSGGSTYYADSVKGRFTISRDNAKNTVYLQMNSLKPEDTAVYYCNARHYPWFAAYGSYAYEYWGQGTQVTVSS | low polyreactivity
16 | QVQLVESGGGLVQAGGSLRLSCAASGSIFSAYAMGWSRQAPGKERELVASITTDGGITYYADSVKGRFTISRDNAKNTVYLQMNSLKPEDTAVYYCAVLQYYYPYYYWGQGTQVTVSS | low polyreactivity

Row | Sequence | polyreactivity (PSR sort gate)
17 | QVQLVESGGGLVQAGGSLRLSCAASGSTFTYYAMGWYRQAPGKERELVAAISRGGRTNYADSVKGRFTISRDNAKNTVYLQMNSLKPEDTAVYFCAAVVFRTGIWFDYWGQGTQVTVSS | high polyreactivity
18 | QVQLVESGGGLVQAGGSLRLSCAASGRTFTAYTMGWYRQAPGKERELVASISSGVTYADSVKGRFTISRDNAKNTVYVQMNSLKPEDTAVYYCAARLWYVQGYVPYVHHRFDYWGQGTQVTVSS | low polyreactivity
19 | QVQLVESGGGLVQAGGSLRLSCAASGRTFKFNAMGWYRQAPGKERELVAGITWTGSTTSYADSVKGRFTISRDNAKNTVYLQMNSLKPEDTAVYYCDADKIRFWYHGFYYRGQGTQVTVSS | low polyreactivity
20 | QVQLVESGGGLVQAGGILRLSCAASGSTFGRYAMGWYRQAPGKVRELVAAISRRGGSTYYADSVKGRFTISRDNAKKTVYLQMYSLKRQDTAVYYCGADDVRTTGCHFDYWGQGTEVTVSS | high polyreactivity
21 | QVQLVESGGGLVQAGGSLRLSCAASGSTFTYNAMGWYRHAPGKERELVASISSGTTTYYADSVKGRFTISRDNAKNTVYLQLNSLKPEDTAVYFCAVDSWSRVQGWLAHNYDYWGQGTQVTVSS | low polyreactivity
22 | HVQLEESGGGLVQAGGSLRLSCAASGITFYKYVMGSYRQAPGKERELVAAITYSGGSRYYADSVKGRFTISRDNAKNTVYLPMNSLKPEDSAVYYWNAYYYWYFPYTYDYWGQGTQVTVSS | high polyreactivity
23 | QVQLVESGGGLVQAGGSLRLSCAASGRTFLRYAMGWYRQAPRKERELVAAISVSGASTNYADSVKGRFTISRDYAKNTVYLQMNSLKPEDTAVYYCAARVADYDGVPLYRHGDYWGQGTQVTVSS | low polyreactivity
24 | QVQLVESGGGLVQAGGSLRLICAASGIIFPVYDMGWYRQAPGKERELVASITDSGGSTSYADSVKGRFTISRDNAKNTVYLQLNSLKPEDTAVYYCAVTDSDTNYYGYLSYDYWGQGTQVNVSS | low polyreactivity
25 | QVQLVESGGGLVQAGGSLRLSCAASGITFYGYAMGWYRQAPGKERELVASISYGGGSTYYADSVKGRFTISRDNAKNTVYFQLNSLKPEDTAVYYCAAQAATYYSGYYYWGQGTQVTVSS | high polyreactivity
26 | QVQLVESGGGLVQAGGSLRLSCAASGSTFGGYAMGWYRQAPGKERELVAAISFDGGSTYADSVKGRFTISRDNAKNTVYLQMNSLKPEDTAVYYCAVKFWLVIQFDYCGQGTQVTVSS | low polyreactivity
27 | QVQLVESGGGLVQAGGSLRLSCAASGSIFNLNAMGWYIQAPGKERELVASISSDRSTYYADSVKGRFTISRDNAKNTVYLQMNSLKQEDTAVYYCNADSQLAFKQLSFDYWGQGTQVTVSS | low polyreactivity
28 | QVQLVESGGGLVQAGGSLRLSCAASGRIFDDYVMGWYRKAPGKERELVARISVRGGSTYYADSVKGRFTISRDNAKNTVYLQMNSLKPEDTAVYYCNAVFGGWLGPFDYWGQGTQVTVSS | low polyreactivity
29 | QVQLVESGGGLVQAGGSLRLSCAASGSTFFSYDMGWYRQAPGKERELVATISTSVGRTYYADSVKGRFTISRDNAKNTVYLLMNSLKPEDTAVYYCNSDSLGYLYNYYWPAYDHWGQGTQVTVSS | low polyreactivity
30 | QVQLVESGGGLVQAGGSLRLSCAASGSIFAHYAMGWYRQAPGKARELVAAISRGGGSTYYSDSVKGRFTISRDNAKNTVYLQMNSLKPEDTAVYYCAVVRSYRGINDYWGQGTQVTVTS | low polyreactivity
31 | QVQLVESGGGLVQAGGSLRLSCAASGFTVVSYAMGWYRQAPGKERELVAAITYSGTSTYYADSVKGRFTISRDKAKNTVYLQMNSLKPEDTAVYYCNADSSWVPIWYEYDYWGHGTQVTVSS | low polyreactivity
